B1: Hairpin Ribozyme (parent)
chain: GUCCUCUUUCACGUGCGCGUGAAAGAGAGAAGUGAACCAGAGAAACACACGUUGUGGUAUAUUACCUGGUA

Variants of: B1
Test: self-cleavage, relative activity (ratio to wild type); higher = more cleavage; co-transcriptional

In order of falling self-cleavage:
1. GUCGUCUUUCACGUGCGCGUGAAAGAGAGAAGUGAACCAGAGAAACACACGUUGUGGUAUAUUACCUGGUC [C4G A71C]  0.483
2. GUCAUCUUUCACGUCCGCGUGAAAGAGAGAAGUGAACCAGAGAAACACACGUUGUGGUAUAUUACCUGGUA [C4A G15C]  0.358
3. GUCAUCUUUCACGUGCGCGUGAAAGAGAGAAGUGAACCAGAGAAACACACGUUGUGGUAUAUUACCUGGUG [C4A A71G]  0.346
4. GUCGUCUUUCACGUGCGCGUGGAAGAGAGAAGUGAACCAGAGAAACACACGUUGUGGUAUAUUACCUGGUA [C4G A22G]  0.326
5. GUCGUCUUUCACGUGAGCGUGAAAGAGAGAAGUGAACCAGAGAAACACACGUUGUGGUAUAUUACCUGGUA [C4G C16A]  0.304
6. GUCAUCUUUCACGUGCGCGUGAAAGAGAGAAGUGAACCAGAGAAACACACCUUGUGGUAUAUUACCUGGUA [C4A G51C]  0.261
7. GUCAUCUUUUACGUGCGCGUGAAAGAGAGAAGUGAACCAGAGAAACACACGUUGUGGUAUAUUACCUGGUA [C4A C10U]  0.261
8. GUCAUCUUUCACGUGCGCGGGAAAGAGAGAAGUGAACCAGAGAAACACACGUUGUGGUAUAUUACCUGGUA [C4A U20G]  0.259
9. GUCGUCUUUCACGUGCGCGUGAAAGCGAGAAGUGAACCAGAGAAACACACGUUGUGGUAUAUUACCUGGUA [C4G A26C]  0.259
10. GUCAUCUUUCACGUGCGCGUGAAAGAGAGAAGUGAACCAGAGAAACACACGUUGUGGUAUAUUACCUGGAA [C4A U70A]  0.25
11. GUCGUCUUUCACGUGCGCGUGAAAGAGAGAAGUGAGCCAGAGAAACACACGUUGUGGUAUAUUACCUGGUA [C4G A36G]  0.248
12. GUCAUCUUUCAGGUGCGCGUGAAAGAGAGAAGUGAACCAGAGAAACACACGUUGUGGUAUAUUACCUGGUA [C4A C12G]  0.245
13. GUCGUCUUUCACGUGCGCGUGAAAGAGAGAGGUGAACCAGAGAAACACACGUUGUGGUAUAUUACCUGGUA [C4G A31G]  0.238
14. GUCAUCUUUCACGUGGGCGUGAAAGAGAGAAGUGAACCAGAGAAACACACGUUGUGGUAUAUUACCUGGUA [C4A C16G]  0.236
15. GUCGUCUUUCACGUGCGCGUGAAAGAGAGAAGUGAACCAGAGAAAUACACGUUGUGGUAUAUUACCUGGUA [C4G C46U]  0.235
16. GUCAUCUUUCACGUGCGCGUGAAAGAGAGAAGGGAACCAGAGAAACACACGUUGUGGUAUAUUACCUGGUA [C4A U33G]  0.234
17. GUCGUCUUUCUCGUGCGCGUGAAAGAGAGAAGUGAACCAGAGAAACACACGUUGUGGUAUAUUACCUGGUA [C4G A11U]  0.232
18. GUCGUCUUUCACGUGCGCGUGAAAGAGAGAAGUGAACCAGAGAAACACACGUUGUGGUAUAUUACCUGGUA [C4G]  0.225
19. GUCAUCUUUCACGUGCCCGUGAAAGAGAGAAGUGAACCAGAGAAACACACGUUGUGGUAUAUUACCUGGUA [C4A G17C]  0.225
20. GUCAUCUUUCACCUGCGCGUGAAAGAGAGAAGUGAACCAGAGAAACACACGUUGUGGUAUAUUACCUGGUA [C4A G13C]  0.223
21. GUCAUCGUUCACGUGCGCGUGAAAGAGAGAAGUGAACCAGAGAAACACACGUUGUGGUAUAUUACCUGGUA [C4A U7G]  0.221
22. GUCAUCUUUCACGUGCGCGUGAAAGAGAGAAGUGAACCAGAGAAACACACGGUGUGGUAUAUUACCUGGUA [C4A U52G]  0.22
23. GUCGUCUUUCAGGUGCGCGUGAAAGAGAGAAGUGAACCAGAGAAACACACGUUGUGGUAUAUUACCUGGUA [C4G C12G]  0.216
24. GUCAUCUUUCACGUGCGCGUGAAAUAGAGAAGUGAACCAGAGAAACACACGUUGUGGUAUAUUACCUGGUA [C4A G25U]  0.214
25. GUCGUCUUUCACGUGCGCGUGAAAGAGAGAAGUGAACCAGAGAAACACACGUUGUGGUUUAUUACCUGGUA [C4G A59U]  0.212
26. GUCAUCUUUCACGUGCGCGUGAAAGAGAGAAGUGAACCAGAGAAACACACGUUGUGGUAAAUUACCUGGUA [C4A U60A]  0.197
27. GUCGUCUUUCACGUGCGCGUGUAAGAGAGAAGUGAACCAGAGAAACACACGUUGUGGUAUAUUACCUGGUA [C4G A22U]  0.196
28. GUCGUAUUUCACGUGCGCGUGAAAGAGAGAAGUGAACCAGAGAAACACACGUUGUGGUAUAUUACCUGGUA [C4G C6A]  0.195
29. GUCAUCUUUCACGUGCGCGUGAAAGAGAGAAAUGAACCAGAGAAACACACGUUGUGGUAUAUUACCUGGUA [C4A G32A]  0.195
30. GUCGUCUUUCACGUGUGCGUGAAAGAGAGAAGUGAACCAGAGAAACACACGUUGUGGUAUAUUACCUGGUA [C4G C16U]  0.194
31. GUCAUCUUUCACGUGCGCGUGAAAGAGAGAAGUGAACCAGAGAAACACACGCUGUGGUAUAUUACCUGGUA [C4A U52C]  0.182
32. GUCAUCUUUCACGUGCGCGUUAAAGAGAGAAGUGAACCAGAGAAACACACGUUGUGGUAUAUUACCUGGUA [C4A G21U]  0.178
33. GUCAUCUUUCACGUGCGCGUCAAAGAGAGAAGUGAACCAGAGAAACACACGUUGUGGUAUAUUACCUGGUA [C4A G21C]  0.175
34. GUCAUCUUUCACGUGCGCAUGAAAGAGAGAAGUGAACCAGAGAAACACACGUUGUGGUAUAUUACCUGGUA [C4A G19A]  0.174
35. GUCAUCUUUCACGUGCGCGUGAAAGAGAGAAGUGAACCAGAGAAACACACGUUGUGGUAUAUUACCUAGUA [C4A G68A]  0.17
36. GUCGUCUUUCACGUGCGCGUGAAAGAGAGAAGUGAACCAGAGAAACACACGUUGUGGUGUAUUACCUGGUA [C4G A59G]  0.169
37. GUCAUCUUUCACGUGCGCGUGAAAGAGAGAAGUGAACCAGAGAAACACACGUUGUGUUAUAUUACCUGGUA [C4A G57U]  0.169
38. GUCAUCUUUCACGUGCGCGUGAAAGAGAGAAUUGAACCAGAGAAACACACGUUGUGGUAUAUUACCUGGUA [C4A G32U]  0.168
39. GUCAUCUUUCACGUGCGCGUGAAAGAGAGAAGUGAACCAGAGAAACACACGUUGUGGUAUAAUACCUGGUA [C4A U62A]  0.167
40. GUCAUCUUUCACGUGCGCGUGAAAGAGAGAAGUGAACCAGAGAAACACACGUUGUUGUAUAUUACCUGGUA [C4A G56U]  0.166
41. GUCGUCUUUCACGUGCGCGUGAAAGAGAGAAGUGAACCAGAGAAACACACGUUGUGGUAUCUUACCUGGUA [C4G A61C]  0.164
42. GUCAUGUUUCACGUGCGCGUGAAAGAGAGAAGUGAACCAGAGAAACACACGUUGUGGUAUAUUACCUGGUA [C4A C6G]  0.161
43. GUCAUCUUUAACGUGCGCGUGAAAGAGAGAAGUGAACCAGAGAAACACACGUUGUGGUAUAUUACCUGGUA [C4A C10A]  0.16
44. GUCAUCUUUCACGUGCGCGUGAAAGAGAGAAGUGAAACAGAGAAACACACGUUGUGGUAUAUUACCUGGUA [C4A C37A]  0.159
45. GUCAUCUUUCACGUGCGCGUGAAAGAGAGAAGUGAACCAGAGAAACACACGUUGUGGUAUAUUACCAGGUA [C4A U67A]  0.155
46. GUCAUCUUUCACGUGCGCGUGAAAGAGAGAACUGAACCAGAGAAACACACGUUGUGGUAUAUUACCUGGUA [C4A G32C]  0.155
47. GUCGUCUUUCACGUGCGCGUGAAAGAGAGAAGUGAACCAGAGAAACAAACGUUGUGGUAUAUUACCUGGUA [C4G C48A]  0.151
48. GUCGUCUUUCACGUGCGCGUGAAAGAGAGAAGUGAACCAGAGAAACACACGUUGUGGUCUAUUACCUGGUA [C4G A59C]  0.15
49. GUCGUCUUUCACGUGCGCGUGAUAGAGAGAAGUGAACCAGAGAAACACACGUUGUGGUAUAUUACCUGGUA [C4G A23U]  0.147
50. GUCAUCUUUCACGUGCGCGUGAAAGAGAGAAGUGAACCAGAGAAACACACGUUGUGGUAUAUUACAUGGUA [C4A C66A]  0.146
51. GUCAUCUUUCACGUGCGCGUGAAAGAGAGAAGUGAACCAGAGAAAAACACGUUGUGGUAUAUUACCUGGUA [C4A C46A]  0.146
52. GUCAUCUUUCACGUGCGCGUGAAAGAGAGAAGUGAACCAGAGAAACACACGUUGUGGUAUAUUACCGGGUA [C4A U67G]  0.144
53. GUCAUUUUUCACGUGCGCGUGAAAGAGAGAAGUGAACCAGAGAAACACACGUUGUGGUAUAUUACCUGGUA [C4A C6U]  0.143
54. GUCAUCUUUCACGUGCGCGUGAAAGAGAGAAGUGAACCAGAGAAACACACGUUGUGGUAUAUUACCUGAUA [C4A G69A]  0.141
55. GUCAUCUUUCACGUGCGCGUGAAAGAGAGAAGUGAACCAGAGAAACACACGUUGUGGUAUAUUACCUCGUA [C4A G68C]  0.141
56. GUCAUCUUUCACGUGCGCGUGAAAGAGAGAAGUGAACCAGAGAAACACACGUUGUGGUAUAUUAUCUGGUA [C4A C65U]  0.137
57. GUCGUCUUUCACGUGCGCGUGAAAGAGAGAAGUGAACCAGAGACACACACGUUGUGGUAUAUUACCUGGUA [C4G A44C]  0.136
58. GUCAUCUUUCACGUGCGCGUGAAAGAGAGAAGUGAACCAGAGAAACACACGUUGUGGUAUAUUGCCUGGUA [C4A A64G]  0.134
59. GUCAACUUUCACGUGCGCGUGAAAGAGAGAAGUGAACCAGAGAAACACACGUUGUGGUAUAUUACCUGGUA [C4A U5A]  0.125
60. GUCGUCUUUCACGUGCGCGUGAAAGAGAGAAGUGAACCUGAGAAACACACGUUGUGGUAUAUUACCUGGUA [C4G A39U]  0.123
61. GUCGUCUUUCACGUGCGCGUGAAAGAGAGAAGUGAACCAGAGCAACACACGUUGUGGUAUAUUACCUGGUA [C4G A43C]  0.121
62. GUCAUCUUUCACGUGCGCGUGAAAGAGAGAAGUGAACCAGAGAAACACACGUUGUGGUAUAUUACCUGGCA [C4A U70C]  0.119
63. GUCAUCUUUCACGUGCGCGUGAAAGAGAGAAGUGAACCAGAGAAACACACGUUGUGGUAUACUACCUGGUA [C4A U62C]  0.118
64. GUCAUCUUUCACGCGCGCGUGAAAGAGAGAAGUGAACCAGAGAAACACACGUUGUGGUAUAUUACCUGGUA [C4A U14C]  0.115
65. GUCGUCUUUCCCGUGCGCGUGAAAGAGAGAAGUGAACCAGAGAAACACACGUUGUGGUAUAUUACCUGGUA [C4G A11C]  0.113
66. GUCGUCUUUCACGUGCGCGUGAAAGAGAGAAGUGAACCAGAGAAUCACACGUUGUGGUAUAUUACCUGGUA [C4G A45U]  0.112
67. GUCAUCUUUCACGUGCGCGUGAAAGAGAGAAGUGAACCAGAAAAACACACGUUGUGGUAUAUUACCUGGUA [C4A G42A]  0.111
68. GUCAUCUUUCACGUGCGCGUGAAAGAGAGAAGUGAACCAGAGAAACACACGUUGGGGUAUAUUACCUGGUA [C4A U55G]  0.107
69. GUCGUCUUUCACGUGCGCGUGAAAGAGAGAAGUGAACCAGAGAAAAACACGUUGUGGUAUAUUACCUGGUA [C4G C46A]  0.102
70. GUCGUCUUUCACGUGCGCGUGAAAGAGAGAAGUGAACCAGAGAAACACACGUUGUGGUAUGUUACCUGGUA [C4G A61G]  0.098
71. GUCGUCUUUCACGUGCGCGUGAAAGAGAGAAGUGAACAAGAGAAACACACGUUGUGGUAUAUUACCUGGUA [C4G C38A]  0.0909
72. GUCGUCUUUCACGUGCGCGUGAAAGAGAGAAGUGAACCAGAGAAACACACGUUGUGGUAUUUUACCUGGUA [C4G A61U]  0.0796
73. GUCGUCUUUCACGUGCGCGUGAAAGAGAGGAGUGAACCAGAGAAACACACGUUGUGGUAUAUUACCUGGUA [C4G A30G]  0.069
74. GUCAUCUUUCACGUGCGCGUGAAAGAGAGAAGUGAAGCAGAGAAACACACGUUGUGGUAUAUUACCUGGUA [C4A C37G]  0.0599
75. GUCGUCUUUCACGUGCGCGUGAAAGAGAGAAGUGAACCAGAGUAACACACGUUGUGGUAUAUUACCUGGUA [C4G A43U]  0.053
76. GUCAUCUUUCACGGGCGCGUGAAAGAGAGAAGUGAACCAGAGAAACACACGUUGUGGUAUAUUACCUGGUA [C4A U14G]  0.0473

From the RNAGym collection of RNA variant scans (doi:10.7554/elife.80360)
